Results on 78 sequences are retold here after the supplement of paper PMC7877785.

The data set in a line: self-splicing fitness, log relative to wild type (ln ratio); higher = more splicing; Tetrahymena group I intron in knt gene, E. coli kanamycin selection, DiMSum; sequences stand for … in CUCUCU…GGAGGGAAAAGUUAUCAGGCAUGCACCUGGUAGCUAGUCUUUAAACCAAUAGAUUGCAUCGGUUUAAAAGGCAAGACCGUCAAAUUGCGGGAAAGGGGUCAACAGCCGUUCAGUACCAAGUCUCAGGGGAAACUUUGAGAUGGCCUUGCAAAGGGUAUGGUAAUAAGCUGACGGACAUGGUCCUAACCACGCAGCCAAGUCCUAAGUCAACAGAUCUUCUGUUGAUAUGGAUGCAGUUCACAGACUAAAUGUCGGUCGGGGAAGAUGUAUUCUUCUCAUAAGAUAUAGUCGGACCUCUCCUUAAUGGGAGCUAGCGGAUGAAGUGAUGCAACACUGGAGCCGCUGGGAACUAAUUUGUAUGCGAAAGUAUAUUGAUUAGUUUUGGAGUACUCGUGGUCG
The essentials:
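Six replicate transformations of E. coli BL21(DE3) with a pET-22b(+) library were grown overnight at 37°C or 30°C. The library randomised all eight P1ex-region intron nucleotides, the intron lying in the knt kanamycin-resistance gene, and plates were LB agar with or without 25 μg/mL kanamycin plus 100 μg/mL carbenicillin, 50 μM IPTG and 0.2% rhamnose. Pooled colonies were amplicon-sequenced on an Illumina HiSeq 2500, and fitness is the DiMSum error-weighted combination of wild-type-normalised replicate fold changes, kanamycin versus none.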

± gives the uncertainty stated by the source.

Consider AGAUAGCAAUAUUACGGUAC, for which the “self-splicing fitness (ln)” value is -3.91 ± 0.28 (30 °C) and -2.42 ± 0.22 (37 °C).
ACGGAGCAAUAUUACGGCGC: the “self-splicing fitness (ln)” value runs as follows: (30 °C) 0.159 ± 0.44; (37 °C) -0.221 ± 0.45.
On the same counts, the results for AUAAAGCAAUAUUACGCGGU are -1.8 ± 0.12 and -0.6 ± 0.11.
For UAAAAGCAAUAUUACGCUUA, the “self-splicing fitness (ln)” value is -1.53 ± 0.11 (30 °C) and -1.03 ± 0.12 (37 °C).
In the same order, the values of AUUUAGCAAUAUUACGCCUA are -1.24 ± 0.2 and 0.0334 ± 0.19.
Turning to GGUAAGCAAUAUUACGUCCA, the “self-splicing fitness (ln)” value is, setting by setting: (30 °C) -0.363 ± 0.14; (37 °C) -0.817 ± 0.16.
As to UUUCAGCAAUAUUACGUCUA, the “self-splicing fitness (ln)” value is -0.33 ± 0.077 (30 °C) and 0.101 ± 0.079 (37 °C).
For the sequence CUAAAGCAAUAUUACGUAUU, the “self-splicing fitness (ln)” value is, setting by setting: (30 °C) -3.61 ± 0.19; (37 °C) -2.17 ± 0.24.
With AGUCAGCAAUAUUACGUGCC, the “self-splicing fitness (ln)” value runs as follows: (30 °C) -1.02 ± 0.077; (37 °C) 0.0632 ± 0.095.
In the case of UGCUAGCAAUAUUACGUGCG, the “self-splicing fitness (ln)” value is, setting by setting: (30 °C) -1.94 ± 0.1; (37 °C) -1.7 ± 0.12.
As to AACAAGCAAUAUUACGCAAG, the “self-splicing fitness (ln)” value was -1.88 ± 0.084 (30 °C) and -0.493 ± 0.086 (37 °C).
In the same order, the values of CGACAGCAAUAUUACGCCAG are -1.73 ± 0.11 and -0.84 ± 0.13.
On to GCAGAGCAAUAUUACGCGAU, for which the “self-splicing fitness (ln)” value (30 °C) is -2.94 ± 0.36.
CAUCAGCAAUAUUACGAACG: the “self-splicing fitness (ln)” value is 0.463 ± 0.11 (30 °C) and 0.656 ± 0.11 (37 °C).
On to ACUUAGCAAUAUUACGGCGU, for which the “self-splicing fitness (ln)” value runs as follows: (30 °C) -0.204 ± 0.088; (37 °C) 0.491 ± 0.13.
Regarding UUCGAGCAAUAUUACGCUAA, the “self-splicing fitness (ln)” value is -2.91 ± 0.29 (30 °C) and -1.61 ± 0.17 (37 °C).
Regarding UCCGAGCAAUAUUACGUCAG, the “self-splicing fitness (ln)” value is -3.62 ± 0.24 (30 °C) and -1.07 ± 0.17 (37 °C).
On the same counts, the results for AUUGAGCAAUAUUACGAUAG are -4.02 ± 0.28 and -3.03 ± 0.3.
On the same counts, the results for ACGAAGCAAUAUUACGGGCG are -1.15 ± 0.072 and -0.126 ± 0.1.
For AUGCAGCAAUAUUACGCUAU, the “self-splicing fitness (ln)” value (30 °C) was -2 ± 0.12 and the “self-splicing fitness (ln)” value (37 °C) is -1.33 ± 0.14.
As to ACAAAGCAAUAUUACGUGAG, the “self-splicing fitness (ln)” value by setting is: (30 °C) -0.439 ± 0.049; (37 °C) -0.4 ± 0.079.
In the same order, the values of UAGCAGCAAUAUUACGAGCG are 0.035 ± 0.078 and 0.235 ± 0.098.
As to GAUUAGCAAUAUUACGGGAU, the “self-splicing fitness (ln)” value reads like this: (30 °C) -2.76 ± 0.2; (37 °C) -1.14 ± 0.18.
In the same order, the values of UGAAAGCAAUAUUACGAAGU are -3.76 ± 0.21 and -2.96 ± 0.23.
Consider GGGGAGCAAUAUUACGAUGC, for which the “self-splicing fitness (ln)” value (30 °C) was -1.06 ± 0.42.
Regarding ACUUAGCAAUAUUACGCGGC, the “self-splicing fitness (ln)” value was -2.71 ± 0.25 (30 °C) and -1.12 ± 0.23 (37 °C).
In the same order, the values of CGAAAGCAAUAUUACGGUGA are -1.52 ± 0.084 and -0.808 ± 0.11.
In the same order, the values of GGACAGCAAUAUUACGUAUA are -0.645 ± 0.1 and -0.388 ± 0.095.
On the same counts, the results for GUGUAGCAAUAUUACGUCAG are -3.06 ± 0.26 and -2.53 ± 0.29.
On to GCAUAGCAAUAUUACGAAGU, for which the “self-splicing fitness (ln)” value (30 °C) was -3.88 ± 0.28.
Take GCAGAGCAAUAUUACGCGUC: the “self-splicing fitness (ln)” value by setting is: (30 °C) -3.88 ± 0.2; (37 °C) -2.03 ± 0.14.
Regarding UGAUAGCAAUAUUACGUUUC, the “self-splicing fitness (ln)” value was -2.72 ± 0.22 (30 °C) and -2.29 ± 0.41 (37 °C).
On the same counts, the results for ACUUAGCAAUAUUACGUGAA are -2.94 ± 0.15 and -1.5 ± 0.12.
Turning to UUGUAGCAAUAUUACGCACU, the “self-splicing fitness (ln)” value (30 °C) worked out at 0.662 ± 0.21 and the “self-splicing fitness (ln)” value (37 °C) was determined as 0.253 ± 0.19.
On the same counts, the results for UCGAAGCAAUAUUACGGAAG are -1.18 ± 0.2 and -2.11 ± 0.38.
On the same counts, the results for CUAUAGCAAUAUUACGAAUA are -2.99 ± 0.34 and -1.47 ± 0.22.
Turning to UACAAGCAAUAUUACGCUGA, the “self-splicing fitness (ln)” value was -2.32 ± 0.13 (30 °C) and -1.78 ± 0.13 (37 °C).
On to UUGGAGCAAUAUUACGGGUC, for which the “self-splicing fitness (ln)” value (30 °C) was -3.74 ± 0.34.
Take UUGAAGCAAUAUUACGUGUG: the “self-splicing fitness (ln)” value was -0.963 ± 0.056 (30 °C) and -0.69 ± 0.072 (37 °C).
On the same counts, the results for AUAAAGCAAUAUUACGAGCU are -0.379 ± 0.06 and 0.246 ± 0.086.
In the same order, the values of CGUAAGCAAUAUUACGGACA are -0.986 ± 0.099 and -1.18 ± 0.12.
For the sequence GCGGAGCAAUAUUACGUGGC, the “self-splicing fitness (ln)” value by setting is: (30 °C) -2.82 ± 0.18; (37 °C) -3.01 ± 0.43.
As to UGAUAGCAAUAUUACGCGGU, the “self-splicing fitness (ln)” value is -3.34 ± 0.27 (30 °C) and -1.99 ± 0.22 (37 °C).
With CGUUAGCAAUAUUACGAAGA, for the setting “30 °C”, the “self-splicing fitness (ln)” value was -2.24 ± 0.29.
On the same count and under the same terms, the same measure for CUCGAGCAAUAUUACGGGGG: -4.18 ± 0.42.
In the case of AGCAAGCAAUAUUACGCACA, the “self-splicing fitness (ln)” value was -0.316 ± 0.082 (30 °C) and 0.365 ± 0.12 (37 °C).
On the same counts, the results for CAUGAGCAAUAUUACGCCAG are -1.94 ± 0.19 and -1.84 ± 0.24.
On the same counts, the results for UAUGAGCAAUAUUACGGGUG are -2.3 ± 0.15 and -1.06 ± 0.16.
With CAGAAGCAAUAUUACGAGCA, for the setting “37 °C”, the “self-splicing fitness (ln)” value was -1.3 ± 0.38.
Take CGGGAGCAAUAUUACGACAU: the “self-splicing fitness (ln)” value (30 °C) was -4.013 ± 0.038 and the “self-splicing fitness (ln)” value (37 °C) was -2.67 ± 0.046.
For ACACAGCAAUAUUACGAUCC, the “self-splicing fitness (ln)” value is -1.21 ± 0.093 (30 °C) and -0.951 ± 0.13 (37 °C).
Turning to ACCGAGCAAUAUUACGCCAG, the “self-splicing fitness (ln)” value (37 °C) is -1.35 ± 0.27.
Regarding GUAAAGCAAUAUUACGUGUC, the “self-splicing fitness (ln)” value was -1.85 ± 0.06 (30 °C) and -1.14 ± 0.079 (37 °C).
In the case of UUUAAGCAAUAUUACGCGGU, the “self-splicing fitness (ln)” value reads like this: (30 °C) -3.46 ± 0.26; (37 °C) -1.85 ± 0.23.
With UAUUAGCAAUAUUACGGAAA, the “self-splicing fitness (ln)” value (30 °C) is -1.81 ± 0.48 and the “self-splicing fitness (ln)” value (37 °C) is -1.98 ± 0.46.
In the same order, the values of CACAAGCAAUAUUACGAUAG are -0.655 ± 0.046 and 0.242 ± 0.062.
On to AAGGAGCAAUAUUACGAGCA, for which the “self-splicing fitness (ln)” value by setting is: (30 °C) -2.24 ± 0.45; (37 °C) -0.592 ± 0.4.
On the same counts, the results for UGGCAGCAAUAUUACGUCGU are -2.65 ± 0.099 and -1.22 ± 0.096.
Consider GGCAAGCAAUAUUACGGCAA, for which the “self-splicing fitness (ln)” value came to 0.2 ± 0.086 (30 °C) and 0.388 ± 0.12 (37 °C).
As to GUCCAGCAAUAUUACGGACA, the “self-splicing fitness (ln)” value runs as follows: (30 °C) -2.84 ± 0.26; (37 °C) -1.67 ± 0.18.
As to GCACAGCAAUAUUACGUGAC, the “self-splicing fitness (ln)” value (30 °C) was -1.13 ± 0.089 and the “self-splicing fitness (ln)” value (37 °C) was -1.97 ± 0.1.
As to ACACAGCAAUAUUACGCAUA, the “self-splicing fitness (ln)” value runs as follows: (30 °C) -2.45 ± 0.08; (37 °C) -1.49 ± 0.072.
As to CGUAAGCAAUAUUACGUACA, the “self-splicing fitness (ln)” value (30 °C) was -1.59 ± 0.13 and the “self-splicing fitness (ln)” value (37 °C) was -0.137 ± 0.13.
On to CACUAGCAAUAUUACGAGGC, for which the “self-splicing fitness (ln)” value was -4.08 ± 0.42 (30 °C) and -2.38 ± 0.2 (37 °C).
Consider UAGGAGCAAUAUUACGUAGU, for which the “self-splicing fitness (ln)” value was -3.13 ± 0.3 (30 °C) and -1.81 ± 0.3 (37 °C).
With GGCAAGCAAUAUUACGCACU, the “self-splicing fitness (ln)” value was -0.587 ± 0.06 (30 °C) and -0.483 ± 0.075 (37 °C).
In the same order, the values of AAGUAGCAAUAUUACGCUAG are -1.57 ± 0.17 and -1.04 ± 0.2.
With CUGGAGCAAUAUUACGGGCC, where the note is “37 °C”, the “self-splicing fitness (ln)” value is -2.19 ± 0.31.
As for UGUGAGCAAUAUUACGCCGA, the “self-splicing fitness (ln)” value is, setting by setting: (30 °C) -3.5 ± 0.39; (37 °C) -1.77 ± 0.27.
For the sequence UGAGAGCAAUAUUACGCAUU, under “30 °C”, the “self-splicing fitness (ln)” value was -3.34 ± 0.38.
As for ACACAGCAAUAUUACGUACG, the “self-splicing fitness (ln)” value is -1.19 ± 0.067 (30 °C) and -0.925 ± 0.081 (37 °C).
For the sequence CAAUAGCAAUAUUACGAUGA, the “self-splicing fitness (ln)” value (30 °C) was -2.26 ± 0.18 and the “self-splicing fitness (ln)” value (37 °C) is -1.54 ± 0.23.
In the same order, the values of AGUCAGCAAUAUUACGGUCC are -0.805 ± 0.096 and 0.201 ± 0.13.
For CAUUAGCAAUAUUACGCCUA, the “self-splicing fitness (ln)” value (37 °C) was -1.73 ± 0.31.
For the sequence GAGGAGCAAUAUUACGUCAU, the “self-splicing fitness (ln)” value reads like this: (30 °C) -2.41 ± 0.39; (37 °C) -2.26 ± 0.4.
In the same order, the values of AAAUAGCAAUAUUACGAUUA are 0.0855 ± 0.11 and 0.0228 ± 0.096.
Turning to GCAAAGCAAUAUUACGCACG, the “self-splicing fitness (ln)” value is, setting by setting: (30 °C) -1.83 ± 0.12; (37 °C) -0.806 ± 0.11.
Turning to CACGAGCAAUAUUACGCCAG, the “self-splicing fitness (ln)” value reads like this: (30 °C) -3.4 ± 0.27; (37 °C) -2.95 ± 0.28.
